Source: US20260274983A1 (MODERNATX, published 2026)
Where a chain is given by its changes, count along the chain named. Blank lines part the entries; values can stand above or below the binder they belong to.

What was measured:
human BCMA [1] = biological target: T1, human BCMA (human, UniProt Q02223 1-184); test: FACS binding to RPMI8226 cells, Fc format [upper panel RPMI8226]
T1 construct: whole, on cells; Human is stated only for CHO-HuBCMA; also called HuBCMA; B-cell maturation antigen
T1 sequence (looked up): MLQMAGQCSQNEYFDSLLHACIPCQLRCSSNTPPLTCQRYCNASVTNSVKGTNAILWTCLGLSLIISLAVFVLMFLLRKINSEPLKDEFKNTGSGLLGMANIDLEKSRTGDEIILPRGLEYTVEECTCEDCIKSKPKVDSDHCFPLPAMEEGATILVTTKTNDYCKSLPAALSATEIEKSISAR

CD38 = biological target: T2, CD38 (UniProt P28907 1-300, limits assumed); test: FACS binding to RPMI8226 cells, VHH-His format
T2 construct: whole, on cells; also called CD38 on RPMI8226 cells; CD38 on H929 cells
T2 sequence (looked up): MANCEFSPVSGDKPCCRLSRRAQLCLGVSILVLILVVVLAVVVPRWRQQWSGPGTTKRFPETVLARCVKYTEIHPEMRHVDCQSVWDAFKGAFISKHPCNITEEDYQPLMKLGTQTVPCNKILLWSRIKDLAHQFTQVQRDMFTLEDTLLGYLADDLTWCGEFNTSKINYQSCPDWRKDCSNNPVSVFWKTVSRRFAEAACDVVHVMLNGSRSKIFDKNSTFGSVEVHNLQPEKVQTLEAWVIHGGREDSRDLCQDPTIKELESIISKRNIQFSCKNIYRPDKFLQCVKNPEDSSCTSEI

human GPRC5D [2] = biological target: T3, human GPRC5D (human, UniProt Q9NZD1 1-345); test: FACS on H929 cells, VHH-His
T3 construct: whole, on cells; Human is stated only for CHO-HuGPRC5D; also called HuGPRC5D; GPRC5D on CHO-HuGPRC5D cells
T3 sequence (Q9NZD1 whole entry): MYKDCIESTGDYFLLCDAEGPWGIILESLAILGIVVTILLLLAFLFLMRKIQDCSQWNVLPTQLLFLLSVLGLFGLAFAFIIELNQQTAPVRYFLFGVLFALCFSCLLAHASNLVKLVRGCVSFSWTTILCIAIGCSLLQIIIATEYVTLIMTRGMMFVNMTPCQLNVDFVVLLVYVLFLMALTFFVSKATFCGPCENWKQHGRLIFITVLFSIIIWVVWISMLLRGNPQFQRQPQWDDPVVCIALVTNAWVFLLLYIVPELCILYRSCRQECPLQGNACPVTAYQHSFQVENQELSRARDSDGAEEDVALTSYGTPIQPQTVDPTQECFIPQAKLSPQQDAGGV

human GPRC5D [3] = biological target: T3, human GPRC5D; test: FACS on CHO-HuGPRC5D cells, VHH-His
human GPRC5D [4] = biological target: T3, human GPRC5D; test: FACS on CHO-HuGPRC5D cells
human GPRC5D [5] = biological target: T3, human GPRC5D; test: FACS on H929 cells
[6] = biological target: cynomolgus FcRH5 (cynomolgus); test: FACS on RPMI8226-cyFcRH5 cells, VHH-His
human FcRH5 [7] = biological target: T4, human FcRH5 (human, UniProt Q96RD9 16-977); test: FACS binding to RPMI-huFCRH5 (HuFcRH5-RPMI8226) cells, VHH-His format
T4 construct: whole, on cells; also called huFcRH5; RPMI8226-huFcRH5
T4 sequence (looked up): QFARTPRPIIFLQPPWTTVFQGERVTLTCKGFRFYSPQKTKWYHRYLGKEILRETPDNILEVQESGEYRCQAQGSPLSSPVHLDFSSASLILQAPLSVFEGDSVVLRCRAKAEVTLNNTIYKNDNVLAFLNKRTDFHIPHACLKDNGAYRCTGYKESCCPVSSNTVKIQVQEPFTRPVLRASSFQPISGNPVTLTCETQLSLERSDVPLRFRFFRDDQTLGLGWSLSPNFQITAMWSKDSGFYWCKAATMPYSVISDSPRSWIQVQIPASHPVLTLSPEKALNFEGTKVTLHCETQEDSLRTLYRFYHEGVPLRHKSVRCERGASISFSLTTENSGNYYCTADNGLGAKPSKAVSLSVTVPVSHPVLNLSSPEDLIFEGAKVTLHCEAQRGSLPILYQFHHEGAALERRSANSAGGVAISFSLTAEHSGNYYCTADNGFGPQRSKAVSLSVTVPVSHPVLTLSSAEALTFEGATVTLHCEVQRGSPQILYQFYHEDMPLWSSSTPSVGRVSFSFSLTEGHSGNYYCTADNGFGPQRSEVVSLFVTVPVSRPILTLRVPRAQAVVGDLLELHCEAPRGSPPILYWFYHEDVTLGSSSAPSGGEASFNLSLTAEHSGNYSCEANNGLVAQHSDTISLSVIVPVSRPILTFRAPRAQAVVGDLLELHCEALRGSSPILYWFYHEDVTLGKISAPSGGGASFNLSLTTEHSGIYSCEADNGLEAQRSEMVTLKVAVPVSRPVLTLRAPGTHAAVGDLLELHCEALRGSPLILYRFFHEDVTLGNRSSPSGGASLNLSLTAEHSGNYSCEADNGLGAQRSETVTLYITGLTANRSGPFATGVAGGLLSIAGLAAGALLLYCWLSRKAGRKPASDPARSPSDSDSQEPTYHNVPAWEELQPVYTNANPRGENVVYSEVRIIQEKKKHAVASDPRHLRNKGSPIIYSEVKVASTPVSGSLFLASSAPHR

human BCMA [8] = biological target: T1, human BCMA; test: FACS on RPMI8226 cells, Fc formatted
human FcRH5 [9] = biological target: T4, human FcRH5; test: FACS on RPMI8226-huFcRH5 cells, VHH-His

B1: BCMA-VHH21 (Fc fusion)
chain: QVKLEESGGGLVQAGGSLSLSCKASVRYFSTYAMGWFRQAPGKEREFVAAISWSGGSTYYADSVKGRFTISRDNAKNTVYLEMNSLKPEDTAVYYCAAPYGSSQNLEYDYWGQGTQVTVSS
notes: not shown: Fc of the Fc formatted construct
binding result (human BCMA [1]): no binding (tested: about 500 nM (log 2.7))

binding result (CD38): binds
B2: CD38-VHH4 (VHH)
VHH: QVQLVESGGGLVQPGGSLRLSCAASGFSLDYYHIGWFRQAPGKEREGISCISSSDGYTLYADSVKGRFTISRDNAKNTVYLQMNSLKPEDTAVYYCAASPRRLACAGSLYPPLSADFSSWGQGTQVTVSS

EC50 (human GPRC5D [2]): 13.2 nM
EC50 (human GPRC5D [3]): 2.52 nM
B3: GPRC5D-VHH1 (VHH)
VHH: SVQLVESEGGLVQAGGSLRLSCVASGRTVSSYAMGWFRQAPGKEREFVAAISWSGRSTYYADSMKGRFTISRDNAKNTVYLQMNNLRPEDTAVYYCATSRAVIPGRDWNYYEYSGQGTQVTVSS

EC50 (human GPRC5D [4]): 4.44 nM
B4: GPRC5D-VHH1-H7 (VHH)
VHH: B3 VHH with S1Q, E8G, A14P, V23A, A49S, V79L, N85S, P88A, S114W, Q119L
notes: Humanized variant of GPRC5D-VHH1

B5: BCMA-VHH24 (Fc fusion)
chain: QVKLEESGGGLVQAGGSLRLSCQVSGRTFASFAMAWFRQAPGKEREFVAGISWSGGFTSYADSVKGRFTISRDNAKHTVYLQMNSLKTEDTAMYYCGEWGGFSLLGQGTQVTVSS
notes: as for B1
binding result (human BCMA [1]): no binding (tested: about 500 nM (log 2.7))

EC50 (human GPRC5D [2]): 0.23 nM
EC50 (human GPRC5D [3]): 0.68 nM
B6: GPRC5D-VHH2 (VHH)
VHH: QVQLVESGGGLVQAGGSLRLSCAASGRTASAYVMGWFRQAPGKERDFVAGISGGAYYADSVKGRFTIARDNAKNTVYLQMNSLKPEDTAVYYCAAERGMRRLTESYQYDYWGQGTQVTVSS

EC50 (human GPRC5D [5]): 0.06 nM
EC50 (human GPRC5D [4]): 0.3 nM
B7: GPRC5D-VHH2-H5 (VHH)
VHH: B6 VHH with A14P, D46E, A68S, A72S, K84R, P85A, Q116L
notes: Humanized variant of GPRC5D-VHH2

EC50 [6]: 97.2 nM
binding result (human FcRH5 [7]): no binding (tested: 1000 nM)
B8: FcRH5-VHH3 (VHH)
VHH: QVQLVESGGGSVQAGGSLRLSCVDSGHTLSTYAMGWFRQAPGKEREFVAAIARDGGATYLSGSAQGRATISRDNAKSTVYLQMNNLKPDDTAVYYCAASSMFSTAKRDYSYWGQGTQVTVSSHHHHHH

EC50 (human BCMA [8]): 72.2 nM
B9: BCMA-VHH5 (Fc fusion)
chain: QVKLEESGGGLVQAGGSLRLSCAASGRTFSDYTVAWFRQAPGSEREFVAASVWTDGKPYYVDSVRGRFTISRDNAKNTVWLQMDSLQPDDTAVYYCQALTGGSWILDYWGQGTPVTVSS
notes: as for B1

EC50 (human FcRH5 [9]): 7.2 nM
B10: FcRH5-VHH1 (VHH)
VHH: QVQFVESGGGLVQAGGSLRLSCAASGITVSRNDMGWYRQAPGKQRELVAIMNRVGSTDTADSVKDRFTISRDNTKNTLYLQMNNLKPEDTAVYYCNALNTVITWPWGQGTQVTVSSHHHHHH

EC50 (human GPRC5D [2]): 1.65 nM
EC50 (human GPRC5D [3]): 4.23 nM
B11: GPRC5D-VHH3 (VHH)
VHH: QVKLVESGGGLVQPGGSLRLSCVGSGIIFSASNLAWYRQALGKQRELVAGVTGGGSINYADSVKGRFTISRDNAKNTIYLQMNSLKPEDTAVYYCNARRSYSHWGQGTRVTVSS

EC50 (human GPRC5D [5]): 1.17 nM
EC50 (human GPRC5D [4]): 19.8 nM
B12: GPRC5D-VHH3-H9 (VHH)
VHH: B11 VHH with K3Q, V23A, G24A, L41P, K86R, P87A, R109L
notes: Humanized variant of GPRC5D-VHH3

EC50 (human BCMA [8]): 49.2 nM
B13: BCMA-VHH22 (Fc fusion)
chain: HVQLVDSGGGLVQAGGSLRLSCAASGFTFDDYAMSWVRQAPGKGLEWVSAISWNGGSTYYAESMKGRFTISRDNTKNTLYLQMNSLKPEDSAVYYCVPVSHSDSVCGSPYMDYWGKGTLVTVSS
notes: as for B1
